Source: paper PMC9136706
“And” between values parts separate entries of the source, which are not always exact repeats. Identical values can stand only once.

Legend:
[1] = target: Expanded P22 virus-like particle (bacteriophage P22 capsid) (bacteriophage P22) (UniProt P26747); assay: SEC-MALS
[2] = target: DechCD40L (Dec-fused human CD40L) (bacteriophage L | human) (UniProt P29965); assay: SEC
[3] = target: human CD40 on HEK-Blue CD40L cells (human) (UniProt P25942)
Chain of UniProt P25942 (P25942 21-277): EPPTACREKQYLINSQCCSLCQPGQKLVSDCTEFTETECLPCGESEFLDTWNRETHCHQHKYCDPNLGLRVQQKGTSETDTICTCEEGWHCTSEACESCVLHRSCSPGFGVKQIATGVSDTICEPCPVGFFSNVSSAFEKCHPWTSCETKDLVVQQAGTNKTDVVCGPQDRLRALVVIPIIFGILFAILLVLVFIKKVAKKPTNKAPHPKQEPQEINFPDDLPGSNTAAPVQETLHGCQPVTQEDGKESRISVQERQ

Chain of UniProt P26747 (P26747 whole entry, the tested form may be a part): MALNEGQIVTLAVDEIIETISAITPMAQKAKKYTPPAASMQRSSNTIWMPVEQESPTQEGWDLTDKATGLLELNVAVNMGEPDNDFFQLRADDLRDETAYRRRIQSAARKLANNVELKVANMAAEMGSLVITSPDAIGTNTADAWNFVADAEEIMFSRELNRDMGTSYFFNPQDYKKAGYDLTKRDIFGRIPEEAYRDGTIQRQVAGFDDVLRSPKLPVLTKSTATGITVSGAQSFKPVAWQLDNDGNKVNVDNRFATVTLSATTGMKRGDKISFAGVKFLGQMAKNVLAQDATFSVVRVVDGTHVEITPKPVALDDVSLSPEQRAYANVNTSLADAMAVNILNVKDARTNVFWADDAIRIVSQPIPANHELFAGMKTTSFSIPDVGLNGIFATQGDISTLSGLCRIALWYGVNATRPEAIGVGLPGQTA

## Dec (decoration protein of bacteriophage L), wild type (natural protein)
[1]
  stoichiometry N (Dec per capsid): 60

## DechCD40L (Dec-fused human CD40L) (from UniProt P29965 114-261) (ligand)
[2]
  percent of the total peak in the shoulder multimer peak: 8.2%
  stoichiometry N: 3 and 6

## DechCD40L bound to P22 (DechCD40L-P22) (from UniProt P29965 114-261; P26747 1-430) (complex)
[3]
  fold lower EC50 of the SEAP reporter than free hCD40L: 53.6 fold
